What all share (assay): cell-based or functional assay
The target of assay [1] is SARS-CoV-2 BA.1 Spike on pseudovirus (SARS-CoV-2) (UniProt P0DTC2).
Assay [2] deals with SARS-CoV-2 BA.2 Spike on pseudovirus (SARS-CoV-2) (UniProt P0DTC2).
The target of assay [3] is SARS-CoV-2 BA.2.12.1 Spike on pseudovirus (SARS-CoV-2) (UniProt P0DTC2).
Assay [4] concerns the target SARS-CoV-2 BA.4/5 Spike on pseudovirus (SARS-CoV-2) (UniProt P0DTC2).
Assay [5] deals with SARS-CoV-2 Delta Spike on pseudovirus (SARS-CoV-2) (UniProt P0DTC2).
Assay [6] addresses SARS-CoV-2 BA.1 Spike on pseudovirus (SARS-CoV-2) (UniProt P0DTC2). This is another data set of the same source.
Assay [7] has as its target SARS-CoV-2 BA.2 Spike on pseudovirus (SARS-CoV-2) (UniProt P0DTC2). This is another data set of the same source.
Assay [8] addresses SARS-CoV-2 BA.2.12.1 Spike on pseudovirus (SARS-CoV-2) (UniProt P0DTC2). The source holds these as a separate data set.
In assay [9] the target is SARS-CoV-2 BA.4/5 Spike on pseudovirus (SARS-CoV-2) (UniProt P0DTC2). This is another data set of the same source.
The target in assay [10] is SARS-CoV-2 Delta Spike on pseudovirus (SARS-CoV-2) (UniProt P0DTC2). The source holds these as a separate data set.
The target in assay [11] is SARS-CoV-2 BA.1 spike protein (SARS-CoV-2).
Assay [12] concerns the target SARS-CoV-2 BA.1.1 spike protein (SARS-CoV-2).
For assay [13], the target named is SARS-CoV-2 BA.2 spike protein (SARS-CoV-2).
Assay [14] deals with SARS-CoV-2 BA.2.12.1 spike protein (SARS-CoV-2).
In assay [15] the target is SARS-CoV-2 BA.2.3.20 spike protein (SARS-CoV-2).
The target of assay [16] is SARS-CoV-2 BA.2.75 spike protein (SARS-CoV-2).
For assay [17], the target named is SARS-CoV-2 BA.2.75.2 spike protein (SARS-CoV-2).
Assay [18] has as its target SARS-CoV-2 BA.4.6 spike protein (SARS-CoV-2).
In assay [19] the target is SARS-CoV-2 BA.4/5 spike protein (SARS-CoV-2).
The target in assay [20] is SARS-CoV-2 BF.7 spike protein (SARS-CoV-2).
Assay [21] concerns the target SARS-CoV-2 BF.7.14 spike protein (SARS-CoV-2).
The target in assay [22] is SARS-CoV-2 BN.1 spike protein (SARS-CoV-2).
Assay [23] deals with SARS-CoV-2 BQ.1 spike protein (SARS-CoV-2).
The target of assay [24] is SARS-CoV-2 BQ.1.1 spike protein (SARS-CoV-2).
Assay [25] concerns the target SARS-CoV-2 CH.1.1 spike protein (SARS-CoV-2).
The target of assay [26] is SARS-CoV-2 Delta (B.1.617.2) spike protein (SARS-CoV-2).
In assay [27] the target is SARS-CoV-2 XBB.1 spike protein (SARS-CoV-2).
For assay [28], the target named is SARS-CoV-2 XBB.1.5 spike protein (SARS-CoV-2).
Assay [29] deals with SARS-CoV-2 BA.4/5 Spike on pseudovirus (SARS-CoV-2) (UniProt P0DTC2). The source holds these as a separate data set.
Assay [30] concerns the target SARS-CoV-2 Delta (B.1.617.2) spike protein (SARS-CoV-2). The source holds these as a separate data set.
For assay [31] the target is unchanged. The source holds these as a separate data set.
For assay [32] the target is unchanged. This is another data set of the same source.
Assay [33] deals with SARS-CoV-2 BQ.1.1 spike protein (SARS-CoV-2). This is another data set of the same source.
The target of assay [34] is SARS-CoV-2 Delta (B.1.617.2) spike protein (SARS-CoV-2). This is another data set of the same source.
Assay [35] deals with SARS-CoV-2 XBB.1.5 spike protein (SARS-CoV-2). The source holds these as a separate data set.

Like-named read-outs stand apart in the source and are kept apart here.

For AZD1061 (antibody), the % neutralization at 4.5 µg/ml, pseudovirus in assay [1] stood at 83.9%; in assay [2] it was 99.7%; in [3] it was 99.8%; in assay [4], 96.7%; in assay [5], 100%. Besides, the IC50, pseudovirus neutralization in assay [6] was 1220 ng/mL; in [7], 5.8 ng/mL; in assay [8], 5.1 ng/mL; in assay [9], 41.2 ng/mL; in assay [10] it was 5.9 ng/mL.

Consider AZD8895 (antibody), for which the % neutralization at 4.5 µg/ml, pseudovirus in assay [1] stood at 96.5%; in [2] it was 93.9%; in assay [3], 94.2%; in assay [4], 25.8%; in [5], 102%. Further, the IC50, pseudovirus neutralization amounted to 1160 ng/mL in assay [6], 608 ng/mL in assay [7], 415 ng/mL in assay [8] and 0.5 ng/mL in assay [10].

For the substance Bebtelovimab (antibody), the pseudovirus neutralization EC50 in [11] is 0.17 ng/mL; in assay [12], 0.12 ng/mL; in [13] it was 0.2 ng/mL; in assay [14], 0.2 ng/mL; in assay [15] it was 12 ng/mL; in [16], 0.65 ng/mL. The pseudovirus neutralization EC50 in [17] was determined as 0.46 ng/mL; in assay [18], 0.2 ng/mL; in assay [19] it was 0.073 ng/mL; in [20], 0.11 ng/mL; in assay [21], 0.22 ng/mL; in assay [22], 0.467 ng/mL. Moreover, the pseudovirus neutralization EC50 in assay [26] was 3.8 ng/mL. Besides, the pseudovirus neutralization EC80 stood at 1.8 ng/mL in [11]; 1.3 ng/mL in assay [12]; 1.4 ng/mL in [13]; 1.2 ng/mL in assay [14]; 360 ng/mL in assay [15]; 8.2 ng/mL in assay [16]. Also, the pseudovirus neutralization EC80 in [17] was determined as 6.3 ng/mL; in [18] it was 2.5 ng/mL; in assay [19], 1.2 ng/mL; in [20], 1.7 ng/mL; in [21], 1.4 ng/mL; in assay [22] it was 5.3 ng/mL. The same substance showed a pseudovirus neutralization EC80 in assay [26] of 23 ng/mL. Besides, the pseudovirus neutralization EC90 in [11] was 7.2 ng/mL; in assay [12], 5.6 ng/mL; in assay [13] it was 4.4 ng/mL; in assay [14] it was 3.6 ng/mL; in assay [15], 2600 ng/mL; in [16] it was 36 ng/mL. Further, the pseudovirus neutralization EC90 in assay [17] is 29 ng/mL; in assay [18], 11 ng/mL; in assay [19], 6.4 ng/mL; in assay [20], 8.5 ng/mL; in [21], 4.1 ng/mL; in assay [22], 22 ng/mL. The substance also yielded a pseudovirus neutralization EC90 in assay [26] of 66 ng/mL. In addition, the pseudovirus neutralization Emax (% neutralization) in assay [11] came out at 99.8; in assay [12] it was 99.9; in [13], 99.9; in assay [14], 99.9; in assay [15], 97.9; in assay [16] it was 99.5. In addition, the pseudovirus neutralization Emax (% neutralization) in [17] was determined as 99.5; in [18], 99.6; in assay [19], 99.8; in [20], 99.8; in [21] it was 99.8; in assay [22], 99.4. The pseudovirus neutralization Emax (% neutralization) was 72.2 in assay [23]; 53 in assay [24]; 5.32 in [25]; 99.9 in assay [26]; 10.8 in assay [27]; 2.01 in assay [28]. For the same substance, the figures for the pseudovirus neutralization Emax, TMPRSS2-Vero E6 (bebtelovimab + isotype) (% neutralization) in assay [24], in assay [26] and in assay [28] were 40.5, 99.7 and 2.93, respectively. In addition, the pseudovirus neutralization Emax, Vero E6 (bebtelovimab + isotype) (% neutralization) in assay [24] worked out at 59.1; in assay [26], 99.7; in [28], 4.21; in assay [33], 55.6; in [34], 99.7; in assay [35], 0.55. The pseudovirus neutralization EC50, TMPRSS2-Vero E6 (bebtelovimab + isotype) in assay [26] was 1.6 ng/mL. Moreover, the pseudovirus neutralization EC50, Vero E6 (bebtelovimab + isotype) turned out to be 0.63 ng/mL in [26] and 0.44 ng/mL in [30]. Also, in [26], the pseudovirus neutralization EC80, TMPRSS2-Vero E6 (bebtelovimab + isotype) was 13 ng/mL. The pseudovirus neutralization EC80, Vero E6 (bebtelovimab + isotype) in assay [26] came out at 4.2 ng/mL; in [31], 3.5 ng/mL. Moreover, the pseudovirus neutralization EC90, TMPRSS2-Vero E6 (bebtelovimab + isotype) in assay [26] stood at 43 ng/mL. Besides, the figures for the pseudovirus neutralization EC90, Vero E6 (bebtelovimab + isotype) in assay [26] and in [32] were 13 ng/mL and 12 ng/mL, respectively. This substance also had an IC50, pseudovirus neutralization in assay [29] of 0.3 ng/mL.

In the case of “Sotrovimab VH/VL (human IgG1 molecule expressing the same variable regions of Sotrovimab) (antibody)”, the % neutralization at 4.5 µg/ml, pseudovirus in assay [1] is 99.4%; in assay [2], 73.1%; in [3], 76.9%; in assay [4], 60.5%; in [5] it was 101%. Further, the IC50, pseudovirus neutralization in assay [2] was 704 ng/mL; in assay [3], 1200 ng/mL; in assay [4], above 4500 ng/mL; in assay [5], 65 ng/mL; in assay [6], 63.3 ng/mL; in [7] it was 392 ng/mL. Further, the IC50, pseudovirus neutralization in assay [8] was 714 ng/mL; in [9] it was 666 ng/mL; in assay [10], 12.3 ng/mL; in assay [29], 424 ng/mL.

With Sotrovimab VH/VL-hamIgG2a (antibody), the pseudovirus neutralization EC50, Vero E6 in [13] was 361 ng/mL.

Sotrovimab VH/VL-huIgG1 (antibody) came in with a pseudovirus neutralization EC50, Vero E6 in assay [13] of 862 ng/mL.

These data come from patent US20240360203A1.
